This experiment deals with DddX (ATP-dependent DMSP lyase) of Psychrobacter sp. D2, recombinant (Psychrobacter sp. D2). The experiment is described as follows: SEC; gel filtration of purified DddX against molecular mass standards (semilog plot of mass versus Kav).

The stoichiometry N is the number of molecules, sites or subunits per partner or assembly.

As to “DddX (ATP-dependent DMSP lyase) of Psychrobacter sp. D2, recombinant (enzyme)”, the stoichiometry N was 2.

The record behind these values is article PMC8163506, “A novel ATP dependent dimethylsulfoniopropionate lyase in bacteria that releases dimethyl sulfide and acryloyl-CoA” (eLife, 2021).
